The DeepSol protein solubility set

Assay: soluble on expression in E. coli; label from the status in PepcDB or PDB records

Sequence | soluble on expression in E. coli
MAHHHHHHMGTLEAQTQGPGSMSAPLAEVDPDIAELLAKELGRQRDTLEMIASENFVPRAVLQAQGSVLTNKYAEGLPGRRYYGGCEHVDVVENLARDRAKALFGAEFANVQPHSGAQANAAVLHALMSPGERLLGLDLANGGHLTHGMRLNFSGKLYENGFYGVDPATHLIDMDAVRATALEFRPKVIIAGWSAYPRVLDFAAFRSIADEVGAKLLVDMAHFAGLVAAGLHPSPVPHADVVSTTVHKTLGGGRSGLIVGKQQYAKAINSAVFPGQQGGPLMHVIAGKAVALKIAATPEFADRQRRTLSGARIIADRLMAPDVAKAGVSVVSGGTDVHLVLVDLRDSPLDGQAAEDLLHEVGITVNRNAVPNDPRPPMVTSGLRIGTPALATRGFGDTEFTEVADIIATALATGSSVDVSALKDRATRLARAFPLYDGLEEWSLVGR | soluble
MAHHHHHHMLFPTACPDLIAREHLFNTLLNPVVYRWMWGRLRSCFSDSEVMAYTNNLSCVSHSVVCELVNKYPHLHQHVFAGPVTVLNERKEAAVTAHAEPLMVDPVGWTRALAEVCRRDYDVQFALGERLEDAVTYLKYDVESTRSIRVSKPDPSHPEQRLFASEGYDVVILAAGASTGTMTLPNSRLPVLGLSGLSAVVQQPSGALKDAVWSLFQCRPHRSPAAAASSSSPEVDAPSSHEGVADPLARPAPGTLALLSSHCSPVWLHVAQ | soluble
MGNRLKAARSPYLLAHAEDPVDWYPFGEEAFRKAQAEDKPIFLSVGYASCHWCHVMHRESFQDEEVARLLNAHFVPVKVDREERPDVDAAYMRALVSLTGQGGWPMSLFLTPEGKPFFGGTYFPKEDRMGLPGFKRVLVAVAEAWAGKREAILEEAERLTRALWKSLSPPPGPLPEGAEEEALDHLERAFDPEWGGFLPAPKFPQGPLLLYLLARAWEGEERAARLLRPTLRAMALGGVYDQVGGGFHRYSVDRFWRLPHFEKMLYDNALLARVYLGAYKLFGEDLFLRVARETLDWLLSMQRREGGFHTALDAESEGEEGRYYTWTEAELREALGEDFPLARRYFALGEDLGERSVLTAWGEAEARKALGEGFFAWREGVRAKLQGARRRRMPPALDDKVLADWSALAVRALAEAGRLFGEERYLEAAKRGARFLLAHMYREGLLRHTWRGSLGEEAYLSDQAFAALAFLELYAATGEWPYLDWAQRLAEAGWRLFREGPSLPLPAKEVEEGALPSGESALAEALVRLGAVFGGDYRERAEEVLAEKARWLARYPHALPGALLAKALWERGTELALPLPSPLLEAARGAFLPLTQLVLGPAGALPALEGREAGKAYVCRRGVCLLPVDRWEEVEARVRGDD | soluble
GMTAVFRNTVLVRFKHCDAAGIVFYPRYFEMLNDFIEDWFAQALDWPFDAMHGAGQAGVPTADLHCRFVAPSRLGETLTRELRVVKLGQSSFTVQVRFMGPDSGLRLEVTQRLVCVDTDKIAPRPLPDPVRQAMATYVDETLAATGSPGL | soluble
MAHHHHHHLPALKLALEYIVPCMNKHGICVVDDFLGKETGQQIGDEVRALHDTGKFTDGQLVSQKSDSSKDIRGDKITWIEGKEPGCETIGLLMSSMDDLIRHCNGKLGSYKINGRTKAMVACYPGNGTGYVRHVDNPNGDGRCVTCIYYLNKDWDAKVSGGILRIFPEGKAQFADIEPKFDRLLFFWSDRRNPHEVQPAYATRYAITVWYFDADERARAKVKYLTGEKGVRVELNKPSDSVGKDVF | soluble
MSLEFALKAVTEHGPFTDIGKFDQDRWQLFHTDEDRSEAHDLADQHPEKVGEMAALWMSEAKKYHVLPLSDLGVMGILKMEFKPPVPPSRQYAYYPGTSTVPEHSAANTHGVSFKVLADVEFTADSQGILFAHGSRFGGHALYVKNGKLIYVYNFLGIPPEQRLVGDAPRSGKHVVGVEFIKERMGEYKESYGPARLYVDERIVAEAPIRTMTGHFAITGEGLCIGYDSGDGVSNDYRPKFAFSGGKINKVVFDVGADLYVDVETHLVAAMARDEGHHHHHH | soluble
MGSDKIHHHHHHMNTEHAAYQIADELGGLELLNAHYHKQNFSRHTHEGYTVGVIETGAQRFYRTGGNHVAPKHSIILVNADEVHNGCSATEGGWSYRAMYPVPAQFAGINSERAANSGAPYFPEPVVYDPELAELLRLTFTTLDTSDNRLLRESLVYSSLTQLMARHGKHRPSDNLAAMAKPALALVKSFIDDHPAADISLEELATLAGLSPYYLLKQFQRYYGLPPHAYQIQARVRLAKGKIKQGTRLLDVALDCGFHDQSHLNRHFKKTVGVTPGQFAKEIGRNIIQA | not soluble
MSLRVVLKLGTSVLTAGTDRLHRPRLVDLMRDIAAVSAQGHEVVLVSSGAVTAGWEALGFPPRERTLAEKQLLAAVGQVQLMHLYTSLAELYGLRSAQLLLTADDFRERTRYLNARTTLEGCLSRGVLPVINENDTVAVEQIKVGDNDTLSAFVANLVEADLLLILTDAPGLYTADPRTHPDATLIPVVERVTPDIWALAGGAGSHRGTGGMHTKIQAAEIATRAGTPVVIAPGDLPEALRRVVDGEALGTRFLAHGTRLEARKRWILAEIAHGRLLLDGGAAQAVRERGSSLLPAGIRQVEGDFERGHTVRLLAPDGQELGRGLTRYRADDLRRVCGHHSREIEALLGYTYGEEAVHRDDLVLLEGHHHHHH | soluble
LFGVTSELSKDGRERIYRVEGQLFYASVEDFMAAFDFREALDRVVIDVSRAHIWDISSVQALDMAVLKFRREGAEVRIVGMNEASETMVDRLAIHDKPGAMDRLVAH | not soluble
MAHHHHHHMGCKSSAEAKPSETRSPSARLSRNSVTTPPDRMDTAHRLHPAAREEVDLDPENVAGAEHISPSVVTARSSSRVAAVTLHGICGYTHNGVPAYSNGTSNTWPWMKNFCEGIFMGYQWQCVEFARRWLWVTHRLLLPKRSCAYCFSSCTYAYRLKKDSSLISQRARAAMHKAAAETGAGSPSSSKEVNAATEARHLGPCTSRDTWEKVPAKFVKQGSLVPPVADSLIVYPISWGSPWGHIGVITAVDLDRHRVYVADQNRYFHDWNG | soluble
MSLKNNVYILADSVVTPLGQSTEENMEKLYSLQSAIRTYTHPQIGTFYASKFEDGKSFQIKKDAAGKTKIERLFISCIEKALERTEIDVENANVLFVFASTKGNVEYLTDETFDKNRLRIGITAQDVTAYFNNPNTPIVVSNACISGLQAIQYGYEVLQDNRYTHVVVTGADCFSEFILSGFHSFQALSPFPCKPFDKARAGLSLGEGCGTLILSNKKTDAAAIEILSVVSSNDANHLSGPSRTGEGLSSAILGAINEAGITAEQIDVISAHGTATLYNDEMESMAFKTANLEAKAVYSVKGNIGHTLGAAGIIETIYLAQSLQNNMLVPSIGFTETGTSVELNVTRQSTLKTMQIGLKTASGFGGGNTALLLKKEGHHHHHH | not soluble
MGSDKIHHHHHHMFSYEKVQTLNQLELFVYKYVTSHLEECKTMTIRDLSTQSHVSSTTILRFLKKMGFEGFSDFKYVLRHRNDRTPASELSQDLGPIGQFLKQTATTEYTEKMEEVARVVAQSNTRLFFGMGSSGSMAQYGARILSNYGMLTLAITDPFQPQPISERDYSKTLIILLSVSGETEGVLTQANYYRQNGAKIVAITANSTSTLAQIADYSLTYDIPENKVGSLNFTSQIPVVYLLEQLGEKTSKLVYHPEISHEI | not soluble
MGSDKIHHHHHHMAKFKIEIDSETCLGYKECGLCVSACEESIIVPDEKTGKVKVDKTREINCDGLGACLDVCPVGALKITSESGFSCGGHSGNPCPGSAVKSFNRSEQRSEMLQNKETESELLNWPVQLHLLNPNASYFKNADLIIAADCVPFAYPDFHNNLLKGKVLAIACPKLDDTKDYMLKIRQIVEKNNIKNVTVAIMTVPCCSGLYSLVNRALDGLDVNITKKVISLDGKLMD | not soluble
TYKKPSDAELKRTLTEEQYQVTQNSATEYAFSHEYDHLFKPGIYVDVVSGEPLFSSADKYDSGSGWPSFTRPIDAKSVTEHDDFSYNMRRTEVRSHAADSHLGHVFPDGPRDKGGLRYSINGASLKFIPLEQMDAAGYGALKSKVK | soluble
MAHHHHHHMLQSPKGINILITGTPGTGKTSLAELLAQELGDFKHVEVGKIVKENHFYSEYDNALDTHIVEEDDEDRLLDFMEPMMVNEGNHVVDYHSSELFPRRWFHLVIVLRASTEVLFERLTARRYSEQKRDENMEAEIQGLCEEEARGAYDDSIVIVRENNTLEEMAATVDLIRLRVESLRGNAA | not soluble
